From paper doi:10.1101/2025.01.15.633204 come the findings set out here.

Bounds are passed on as bounds.

This test deals with barnase (Bacillus amyloliquefaciens) (UniProt P00648). As to the kind of experiment: BLI.
UniProt P00648, sequence (P00648 48-157): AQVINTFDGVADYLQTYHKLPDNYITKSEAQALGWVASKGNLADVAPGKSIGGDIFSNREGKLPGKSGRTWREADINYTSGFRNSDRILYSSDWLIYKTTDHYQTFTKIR

On to “green fluorescent protein-Bs (GFP-Bs) fusion protein”, for which the Kd was less than 0.1 nM.

The Kd is the concentration at which binding is half-saturated. Low readings indicate tighter binding, high ones weaker binding.
